Source: patent US20200016201A1
Blank lines part the entries; values can stand above or below the binder they belong to.

Assays:
[1] = molecular target: HLA-DR on human cells (human); assay: avidity constant on tonsil lymphocytes
[2] = molecular target: HLA-DR on human cells (human); assay: avidity constant, Scatchard plot analysis on the target tumor cell line (ARH-77)

Ka [1]: 8.8e+07 M⁻¹
B1: Lym-1 (antibody, V domains shown)
VH: QLKESGPGLVAPSQSLSITCTISGFSLTSYGVHWVRQPPGKGLEWLVVIWSDGSTTYNSALKSRLSISKDNSKSQVFLKMNSLQTDDTAIYYCASHYGSTLAFASWGHGTLVTVSA
VL: DIQMTQSPASLSASVGETVTIICRASVNIYSYLAWYQQKQGKSPQLLVYNAKILAEGVPSRFSGSGSGTQFSLKINSLQPEDFGSYYCQHHYGTFTFGSGTKLEIK

Ka [1]: 1.23e+08 M⁻¹
Ka [2]: 2.33e+08 M⁻¹
B2: Lym-2 (antibody, V domains shown)
VH: EVQLEESGGGLVQPGGSMKLSCVASGFTFSNYWMNWVRQSPEKGLEWVAEIRFKSHNYATHFAESVKGRFTISRDDSKSSVYLQMNNLRAEDTGIYYCTRRIGNSDYDWWYFDVWGAGTSVTVSS
VL: DIVMTQSHKFMSTSVGDRVSVTCKASQNVGNNVAWYQQKPGQSPKVLIYSASYRYSGVPDRFTGSGSGTDFTLTISNVQSEDLAEYFCQQYNTYPFTFGSGTKLEIK
